Laboratory results from US20160326540A1, “Methods and Compositions Employing a Sulfonylurea-Dependent Stabilization Domain” (PIONEER HI-BRED INTERNATIONAL, INC., priority 2013, published 2016).
Where a chain is given by its changes, count along the chain named.

B1: L1-44: first round library L1 sulfonylurea repressor parental clone (protein)
chain: MGSRLDKSKVINSALELLNEVGIEGLTTRKLAQKLGVEQPTLYWHVKNKRALLDALAIEMLDRHATHFCPLEGESWQDFLRNNAKSYRCALLSHRDGAKVYLGTAVTEKQYETAENQLAFLCQQGFSLENALYAVKAVAGFTLGCVLWDQESQVAKEERETPTTASMPPLLRQAVELADHQGAEPAFLFGLELIICGLEKQLKCESGS
modifications: Sulfonylurea responsive repressor
notes: first round library L1 sulfonylurea repressor parental clone
B2: L8-3F01: library L8 chlorsulfuron repressor hit, parent for saturation mutagenesis and CsL3 (protein)
chain: MARLDKSKVINSALELLNEVGIEGLTTRKLAQKLGVEQPTLYWHVKNKRALLDALAIEMMDRHQTHYLPLEGESWQDFLRNNAKSCRRALLSHRDGAKVCLGTRWTEQQYETAENMLAFLTQQGFSLENALYAVSAVRVFTLGAVLFDQESQVAKEERETPTTDSMPPLLRQAWELKDHQGAEPAFLFGLELIIAGLEKQLKRESGS
modifications: Sulfonylurea responsive repressor
notes: library L8 chlorsulfuron repressor hit, parent for saturation mutagenesis and CsL3
B3: L1-29: first round library L1 sulfonylurea repressor parental clone (protein)
chain: MGSRLDKSKVINSALELLNEVGIEGLTTRKLAQKLGVEQPTLYWHVKNKRALLDALAIEMMDRHQTHFCPLEGESWQDFLRNTAKSMRCALLSHRDGAKVWLGTRWTEKQYETPENMLAFLCQQGFSLENALYAWSAVCNFTLGCVLSDQERQVAKEERETPTTDSMPPLLRQAWELSDHQGAEPAFLFGLELIICGLEKQLKCESGS
modifications: Sulfonylurea responsive repressor
notes: as for B1
B4: L1-22: first round library L1 sulfonylurea repressor parental clone (protein)
chain: MGSRLDKSKVINSALELLNEVGIEGLTTRKLAQKLGVEQPTLYWHVKNKRALLDALAIEMMDRHHTHFCPLEGESWQDFLRNTAKSYRCALLSHRDGAKVCLGTAITEKQYETKENNLAFLCQQGFSLENALYARQAVRVFTLGCVLFDQEMQVAKEERETPTTDSMPPLLRQASELLDHQGAEPAFLFGLELIICGLEKQLKSESGS
modifications: Sulfonylurea responsive repressor
notes: as for B1
B5: L6-1B03 (protein)
chain: MGSRLDKSKVINSALELLNEVGIEGLTTRKLAQKLGVEQPTLYWHVKNKRALLDALAIEMMDRHATHICPLEGESWQDFLRNNAKSMRCALLSHRDGAKVCLGTRWTEQQYEAAENMLAFLCQQGFSLENALYAVSAVRVFTLGCVLFDQESQVAKEERETPTTASMPPLLRQAWELKDHQGAEPAFLFGLELIICGLEKQLKCESGS
modifications: Sulfonylurea responsive repressor
B6: L6-5H12 (protein)
chain: B5 chain with I68Y, Q109K, A113T, M117Q, V135M, S152L, L171V
modifications: Sulfonylurea responsive repressor
B7: L6-4D10: library L6 clone, parent of the L8 hits (protein)
chain: B5 chain with A65Q, I68Y, Q109K, A113S
modifications: Sulfonylurea responsive repressor
notes: library L6 clone, parent of the L8 hits
B8: L6-5G06 (protein)
chain: B5 chain with A65Q, I68Y, A113T, M117Q, S152L, A174G
modifications: Sulfonylurea responsive repressor
B9: L6-3H02 (protein)
chain: B5 chain with I68Y, N83T, Q110H, A113S, L171V, D179V
modifications: Sulfonylurea responsive repressor
B10: L6-6F07 (protein)
chain: B5 chain with I68L, N83T, A113S, V135M
modifications: Sulfonylurea responsive repressor
B11: L6-2D07 (protein)
chain: B5 chain with A65Q, I68F, N83T, A113T, V135M, L171V
modifications: Sulfonylurea responsive repressor
B12: L6-2C09 (protein)
chain: B5 chain with A65Q, I68Y, N83T, Q110L, A113T, M117Q, V135M, S152L
modifications: Sulfonylurea responsive repressor
B13: L6-5F05 (protein)
chain: B5 chain with M117Q, S152L
modifications: Sulfonylurea responsive repressor
B14: L6-5H06 (protein)
chain: B5 chain with A65Q, Q109K, A113T, S152L, L171V
modifications: Sulfonylurea responsive repressor

Key:
[1] = system: β-gal background activity; test: First and second round library screening (L1, L2) for induction by sulfonylurea ligands; assay type: cell-based; conditions: initial screen, library L1, data not shown
From the text: The original library was designed to thifensulfuron, but once induction activity was established with other SU compounds having potentially better soil and in planta stability properties than the original ligand, the evolution process was re-directed towards these alternative ligands. Of particular interest were herbicides metsulfuron, sulfometuron, ethametsulfuron and chlorsulfuron. For this objective, parental clones L1-9, -22, -29 and -44 were chosen for further shuffling. Clone L1-9 has strong activity on both ethametsulfuron and chlorsulfuron; clone L1-22 has strong sulfometuron activity; clone L1-29 has moderate metsulfuron activity; and clone L1-44 has moderate activity on metsulfuron, ethametsulfuron and chlorsulfuron. (Data not shown.). No clones found in the initial screen were exceptionally reactive to metsulfuron. These four clones were also chosen due to their relatively strong repressor activity, showing low β-gal background activity without inducer. Strong repressor activity is important for establishing a system which is both highly sensitive to the presence of inducer, and tightly off in the absence of inducer.
Based on the sequence information from parental clones L1-9, -22, -29 and -44, two second round libraries were designed, constructed and screened. The first library, L2, consisted of a ‘family’ shuffle whereby the amino acid diversity between the selected parental clones was varied using synthetic assembly of oligonucleotides to find clones improved in responsiveness to any of the four new target ligands.
The L2 oligonucleotides were assembled, cloned and screened as per the protocol described for library L1 except that each ligand was tested at 2 ppm to increase the stringency of the assay, which is a 10-fold reduction from 1st round library screening concentration.

E. coli KM3 = assay type: cell-based; conditions: for Control 84 hr (colony color intensity): M9 assay plates, no inducer (background activity), 84 hr at 30° C., ImageJ colony color intensity
Method: Library L6 was assembled, rescued, ligated into pVER7314, transformed into E. coli KM3 and plated out onto LB carbenicillin/kanamycin, and carbenicillin only control media as before. Library plates were then picked into 42 384-well microtiter plates (˜16,000 clones) containing 60 μl LB carbenicillin (Cb) broth per well. After overnight growth at 37° C. the cultures were stamped onto M9 assay plates containing no inducer, 0.2 ppm, and 2.0 ppm chlorsulfuron as test inducer. Following incubation at 30° C. for ˜48 hrs, putative hits responding to chlorsulfuron treatment as determined by increased blue colony color were re-arrayed into six 96-well microtiter plates and used to stamp a fresh set of M9 assay plates to confirm the above results. For a more detailed analysis of the relative induction by chlorsulfuron, digital photographs were taken of the plates after various time points of incubation at 30° C. and colony color intensity measured using the digital image analysis freeware program ImageJ (Rasband, US National Institutes of Health, Bethesda, Md., USA, rsb.info.nih.gov/ij/, 1997-2007). […] From this analysis sequence-activity relationships were derived. […] Briefly, C at position 100, and Q at positions 108 and 109 strongly correlated with activation, while R at position 138, L at position 170, and A or G at position 173 were highly preferred in clones with the lowest background activity. […] This information will aid in the design of further libraries to improve responsiveness to chlorsulfuron. […]
Library CsL3 construction and screening: Based on the IVM results the top performing residue substitutions were incorporated into library CsL3 (Table 14). The library was assembled with the oligonucleotides shown below in Table 19. The first and last primers in each set were used as rescue primers. To enable purification of hit proteins, a 6×His-tag between was added to the C-terminus of the ligand binding domain of each clone during the assembly and rescue process. The library was then inserted into pVER7334 SacI/AscI, transformed into E. coli assay strain Km3 and selected on LB+40 ug/ml Kanamycin and 50 ug/ml Carbenicillin. […] Colony color was then assessed at 24 and 96 hrs of incubation at 37° C. […] Also, while the C86M substitution was less frequent in the overall hit population it occurred in all top 26 clones.
Creating novel diversity through random mutagenesis.
Construction and screening of library CsL4.2.

Row | Molecule | Control 84 hr (colony color intensity) (E. coli KM3) | other results
1 | B1 | – | activity on chlorsulfuron [1]: moderate; activity on ethametsulfuron [1]: moderate; metsulfuron activity [1]: moderate
2 | B2 | – | F.IND = fold induction (IND/REP) (Colony Assay Results) (E. coli KM3; CsL3 hits, 20 ppb Cs vs no inducer): 2.5
3 | B3 | – | metsulfuron activity [1]: moderate
4 | B4 | – | sulfometuron activity [1]: strong
5 | B5 | 6.6 | –
6 | B6 | 5.7 | –
7 | B7 | 5.0 | –
8 | B8 | 7.0 | –
9 | B9 | 5.6 | –
10 | B10 | 5.1 | –
11 | B11 | 5.8 | –
12 | B12 | 5.2 | –
13 | B13 | 5.4 | –
14 | B14 | 5.1 | –
